Source: publication PMC7946963 (2021)
Square brackets hold non-standard residues; d marks the D form. Ends that are not written are not given here. pS = N[C@@H](COP(=O)(O)O)C(=O)O

T1: FIP200 Claw domain (residues 1490–1594) (human, UniProt Q8TDY2 1490-1594)
T1 chain: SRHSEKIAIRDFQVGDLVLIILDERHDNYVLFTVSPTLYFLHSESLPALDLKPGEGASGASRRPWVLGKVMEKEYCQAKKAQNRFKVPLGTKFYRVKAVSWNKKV

T2: LC3C (UniProt Q9BXW4 1-126)
T2 chain: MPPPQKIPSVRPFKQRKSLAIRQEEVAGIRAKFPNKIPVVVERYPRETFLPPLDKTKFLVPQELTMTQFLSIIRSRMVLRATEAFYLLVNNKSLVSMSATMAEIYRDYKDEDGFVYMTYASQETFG

T3: FIP200 Claw K1569A (human)
T3 chain: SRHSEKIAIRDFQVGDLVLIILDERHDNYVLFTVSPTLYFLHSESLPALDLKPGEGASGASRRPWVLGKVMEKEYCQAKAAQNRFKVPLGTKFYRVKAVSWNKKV

T4: FIP200 Claw R1573E (human)
T4 chain: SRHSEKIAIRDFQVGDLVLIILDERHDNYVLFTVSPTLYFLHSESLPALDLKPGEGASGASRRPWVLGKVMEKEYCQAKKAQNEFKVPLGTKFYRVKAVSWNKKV

T5: FIP200 Claw Y1564S (human)
T5 chain: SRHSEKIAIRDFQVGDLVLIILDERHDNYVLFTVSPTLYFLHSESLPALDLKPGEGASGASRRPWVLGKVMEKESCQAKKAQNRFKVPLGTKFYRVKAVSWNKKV

T6: FIP200 Claw F1574Q (human)
T6 chain: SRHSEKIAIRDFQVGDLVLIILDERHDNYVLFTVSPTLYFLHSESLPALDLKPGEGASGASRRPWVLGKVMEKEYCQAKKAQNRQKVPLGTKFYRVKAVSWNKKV


Assays:
Experiment in all cases: FP
[1] = biological target: T1, FIP200 Claw domain (residues 1490–1594)
LC3A = LC3A (UniProt Q9H492 1-121)
LC3B = LC3B (UniProt Q9GZQ8 1-120)
LC3C = biological target: T2, LC3C
GABARAPL2 = GABARAPL2 (UniProt P60520 1-117)
1 = 1 (UniProt Q9H0R8 1-117)
FIP200 Claw K1569A = biological target: T3, FIP200 Claw K1569A
FIP200 Claw R1573E = biological target: T4, FIP200 Claw R1573E
FIP200 Claw Y1564S = biological target: T5, FIP200 Claw Y1564S
FIP200 Claw F1574Q = biological target: T6, FIP200 Claw F1574Q

GABARAPL2, sequence (P60520 whole entry): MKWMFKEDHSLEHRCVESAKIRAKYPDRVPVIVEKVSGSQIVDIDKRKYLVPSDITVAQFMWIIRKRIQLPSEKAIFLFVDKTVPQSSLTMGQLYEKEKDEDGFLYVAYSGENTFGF
1, sequence (Q9H0R8 whole entry): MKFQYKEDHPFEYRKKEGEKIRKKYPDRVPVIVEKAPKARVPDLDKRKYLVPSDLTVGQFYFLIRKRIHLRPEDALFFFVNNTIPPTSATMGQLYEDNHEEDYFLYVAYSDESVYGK

| Kd [1] [µM] | Kd (LC3A) [µM] | Kd (LC3B) [µM] | Kd (LC3C) [µM] | Kd (GABARAPL2) [µM] | Kd 1 [µM] | Kd (FIP200 Claw K1569A) [µM] | Kd (FIP200 Claw R1573E) [µM] | Kd (FIP200 Claw Y1564S) [µM] | Kd (FIP200 Claw F1574Q) [µM] | Binder |
| --- | --- | --- | --- | --- | --- | --- | --- | --- | --- | --- |
| 12.3 | 37.3 | 40.7 | 39.8 | 123 | 37.3 | – | – | – | – | TASDDSDIVTLEPPK (also: N-terminal FITC only in fluorescence polarisation assay form) [CCPG1 FIR2 synthetic peptide (residues 99–113)] |
| – | – | – | – | – | – | 105 | 138 | 79.5 | 120 | TASDDSDIVTLEPPK (domain or fragment) [CCPG1 FIR2 (residues 99–113), recombinant] |
| 0.72 | 15.3 | 20.6 | 11 | 34.5 | 15.3 | – | – | – | – | TASDD[pS]DIVTLEPPK (also: N-terminal FITC in fluorescence polarisation assay only) [phospho-CCPG1 FIR2 synthetic peptide (p-CCPG1 FIR2)] |
